From publication PMC11239689

Target: Toll-like receptor 2 (TLR2), endogenous in HT29 cells (human (endogenous in HT29)) (UniProt O60603)
Sequence of UniProt O60603 (O60603 21-784): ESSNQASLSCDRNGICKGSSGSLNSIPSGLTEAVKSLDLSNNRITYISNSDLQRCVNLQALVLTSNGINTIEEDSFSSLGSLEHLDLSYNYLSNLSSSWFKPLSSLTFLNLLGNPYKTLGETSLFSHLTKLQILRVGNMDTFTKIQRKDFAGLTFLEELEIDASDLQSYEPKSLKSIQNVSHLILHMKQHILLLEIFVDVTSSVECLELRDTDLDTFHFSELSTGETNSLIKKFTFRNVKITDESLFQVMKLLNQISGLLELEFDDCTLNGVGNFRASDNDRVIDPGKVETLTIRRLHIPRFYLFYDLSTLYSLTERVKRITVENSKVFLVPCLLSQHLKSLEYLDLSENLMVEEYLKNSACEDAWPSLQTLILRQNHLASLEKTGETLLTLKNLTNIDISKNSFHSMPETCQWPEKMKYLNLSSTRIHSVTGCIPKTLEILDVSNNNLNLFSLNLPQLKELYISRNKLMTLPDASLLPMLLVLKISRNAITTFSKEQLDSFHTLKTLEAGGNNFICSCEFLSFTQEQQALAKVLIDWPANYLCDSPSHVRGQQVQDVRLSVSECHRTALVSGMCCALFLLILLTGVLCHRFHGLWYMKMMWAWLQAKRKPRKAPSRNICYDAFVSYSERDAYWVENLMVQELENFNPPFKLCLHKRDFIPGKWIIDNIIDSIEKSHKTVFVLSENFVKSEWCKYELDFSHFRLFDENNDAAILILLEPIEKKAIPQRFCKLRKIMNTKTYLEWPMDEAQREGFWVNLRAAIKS

Question: For “GbpA domain 4, purified recombinant (domain or fragment)”, which IL-8 secreted by HT29 cells treated with 250 ng GbpA 4 for 8 h (sandwich ELISA) is on record?
Answer: The IL-8 secreted by HT29 cells treated with 250 ng GbpA 4 for 8 h (sandwich ELISA) was 443 pg/mL.
